# Assay results from patent US20190071487A1 (Memorial Sloan Kettering, published 2019).
# B1: Leu39-Val202 soluble HVEM ectodomain polypeptide (receptor)
# chain: LPSCKEDEYPVGSECCPKCSPGYRVKEACGELTGTVCEPCPPGTYIAHLNGLSKCLQCQMCDPAMGLRASRNCSRTENAVCGCSPGHFCIVQDGDHCAACRAYATSSPGQRVQKGGTESQDTLCQNCPPGTFSPNGTLEECQHQTKCSWLVTKAGAGTSSSHWV
# Molecular target: BTLA (B and T lymphocyte attenuator) on human lymphoma B cells (human, UniProt Q7Z6A9 31-289)
# Test: cell-based or functional assay
binder,measurement,value
B1,"correlation of percent pSyk inhibition by solHVEM with BTLA surface expression (ratio of MFI), ten primary human FL B cell samples",0.697 r
